According to paper PMC5291249, “Two p53 tetramers bind one consensus DNA response element”:

Key:
human p53 (hp53) [1] = target: T1, human p53 (hp53) (Homo sapiens, UniProt P04637 1-393); assay: EMSA (GA cross-linked SDS-PAGE); multiple tetramers; 25 mM Tris-HCl pH 7.5, 2 mM DTT, 100 mM NaCl, 1 mM ADP, 5 mM MgCl2 (or 20 mM HEPES pH 7.5, 10 mM ADP), 25 C, then 0.025% glutaraldehyde 20 min; 'weaker' refers; conditions: protein: recombinant; chain copies: 4; blunt
murine p53 (mp53) [2] = target: T2, murine p53 (mp53) (mouse, UniProt P02340 1-390); assay: as above; conditions: protein: recombinant; chain copies: 4; blunt
human p53 (hp53) [3] = target: T1, human p53 (hp53); assay: EMSA (GA cross-linked SDS-PAGE); 25 mM Tris-HCl pH 7.5, 2 mM DTT, 100 mM NaCl, 1 mM ADP, 5 mM MgCl2 (or 20 mM HEPES pH 7.5, 10 mM ADP), 25 C, then 0.025% glutaraldehyde 20 min; 'weaker' refers; conditions: protein: recombinant, chain copies: 4
murine p53 (mp53) [4] = target: T2, murine p53 (mp53); assay: EMSA (GA cross-linked SDS-PAGE); among most efficient; 25 mM Tris-HCl pH 7.5, 2 mM DTT, 100 mM NaCl, 1 mM ADP, 5 mM MgCl2 (or 20 mM HEPES pH 7.5, 10 mM ADP), 25 C, then 0.025% glutaraldehyde 20 min; 'weaker' refers; conditions: protein: recombinant; chain copies: 4
murine p53 (mp53) [5] = target: T2, murine p53 (mp53); assay: EMSA (GA cross-linked SDS-PAGE); 25 mM Tris-HCl pH 7.5, 2 mM DTT, 100 mM NaCl, 1 mM ADP, 5 mM MgCl2 (or 20 mM HEPES pH 7.5, 10 mM ADP), 25 C, then 0.025% glutaraldehyde 20 min; 'weaker' refers; conditions: protein: recombinant, chain copies: 4
mp53 R273H = mp53 R273H (mouse, UniProt P02340 1-390, R270H); assay: EMSA (GA cross-linked, IR dye); 25 mM Tris-HCl pH 7.5, 2 mM DTT, 100 mM NaCl, 1 mM ADP, 5 mM MgCl2 (or 20 mM HEPES pH 7.5, 10 mM ADP), 25 C, then 0.025% glutaraldehyde 20 min; 'weaker' refers; conditions: protein: recombinant, chain copies: 4
human p53 (hp53) [6] = target: T1, human p53 (hp53); assay: EMSA (GA cross-linked SDS-PAGE); increased vs 2 bp spacer; 25 mM Tris-HCl pH 7.5, 2 mM DTT, 100 mM NaCl, 1 mM ADP, 5 mM MgCl2 (or 20 mM HEPES pH 7.5, 10 mM ADP), 25 C, then 0.025% glutaraldehyde 20 min; 'weaker' refers; conditions: protein: recombinant; chain copies: 4; blunt
murine p53 (mp53) [7] = target: T2, murine p53 (mp53); assay: as above; conditions: protein: recombinant; chain copies: 4; blunt
mp53Δ30 = mp53Δ30 (mouse, UniProt P02340 1-360); assay: EMSA (GA cross-linked, IR dye); 25 mM Tris-HCl pH 7.5, 2 mM DTT, 100 mM NaCl, 1 mM ADP, 5 mM MgCl2 (or 20 mM HEPES pH 7.5, 10 mM ADP), 25 C, then 0.025% glutaraldehyde 20 min; 'weaker' refers; conditions: protein: recombinant; chain copies: 4; label: 5' IR800 both strands; blunt
human p53 (hp53) [8] = target: T1, human p53 (hp53); assay: as above; conditions: protein: recombinant; chain copies: 4; label: 5' IR800 both strands; blunt
murine p53 (mp53) [9] = target: T2, murine p53 (mp53); assay: as above; conditions: protein: recombinant; chain copies: 4; label: 5' IR800 both strands; blunt

B1: DNA1 (dsDNA)
DNA 1: AGACATGCCTAGACATGCCT
DNA 2: AGGCATGTCTAGGCATGTCT
Human p53 (hp53) [1]
  binding result: binds
Murine p53 (mp53) [2]
  binding result: binds

B2: bax RE (dsDNA)
DNA 1: GGGCTATATTTCACAAGTTAGAGACAAGCCTGGGCGTGGGCTATATT
DNA 2: AATATAGCCCACGCCCAGGCTTGTCTCTAACTTGTGAAATATAGCCC
Human p53 (hp53) [3]
  binding result: binds
Murine p53 (mp53) [4]
  binding result: binds

B3: DNA31 (1 bp spacer) (dsDNA)
DNA 1: AGCATTGGCTTTCTGGCCATCAGAGACATGCCTGAGACATGCCTAGCTCTGGCATAGAAGAGGCGCT
DNA 2: AGCGCCTCTTCTATGCCAGAGCTAGGCATGTCTCAGGCATGTCTCTGATGGCCAGAAAGCCAATGCT
Human p53 (hp53) [3]; blunt
  binding result: binds
Murine p53 (mp53) [5]; blunt
  binding result: binds

B4: p21 RE (dsDNA)
DNA 1: GAACATGTCCCAACATGTTG
DNA 2: CAACATGTTGGGACATGTTC
Murine p53 (mp53) [5]
  binding result: binds

B5: RGC RE (dsDNA)
DNA 1: TGCCTTGCCTGGACTTGCCTGGCCTTGCCT
DNA 2: AGGCAAGGCCAGGCAAGTTCAGGCAAGGCA
Human p53 (hp53) [3]
  binding result: binds

B6: gadd45 RE (Table 1) (dsDNA)
DNA 1: GAACATGTCTAAGCATGCTG
DNA 2: CAGCATGCTTAGACATGTTC
mp53 R273H
  binding result: no binding
Human p53 (hp53) [3]
  binding result: binds
Murine p53 (mp53) [5]
  binding result: binds

B7: DNA6 (no spacer) (dsDNA)
DNA 1: ATGAAATAGACATGCCTAGACATGCCTGAATTAAT
DNA 2: ATTAATTCAGGCATGTCTAGGCATGTCTATTTCAT
Human p53 (hp53) [3]
  binding result: binds
Murine p53 (mp53) [5]
  binding result: binds

B8: DNA21 (dsDNA)
DNA 1: AGCATTGGCTTTCTGGCCATCAGAGACATGCCTAGACATGCCTAGCTCTGGCATAGAAGAGGCGCT
DNA 2: AGCGCCTCTTCTATGCCAGAGCTAGGCATGTCTAGGCATGTCTCTGATGGCCAGAAAGCCAATGCT
Human p53 (hp53) [3]; blunt
  binding result: binds
Murine p53 (mp53) [2]
  binding result: binds

B9: Tigar_NS (spacer removed) (dsDNA)
DNA 1: AGCATTGGCTTTCTGGCCATCAGAGACATGTCCAGACTTGTCTAGCTCTGGCATAGAAGAGGCGCT
DNA 2: AGCGCCTCTTCTATGCCAGAGCTAGACAAGTCTGGACATGTCTCTGATGGCCAGAAAGCCAATGCT
Human p53 (hp53) [6]
  binding result: binds
Murine p53 (mp53) [7]
  binding result: binds

B10: gadd45_0 (dsDNA)
DNA 1: ATGAAATGAACATGTCTAGGCATGCTGAATTAAT
DNA 2: ATTAATTCAGCATGCCTAGACATGTTCATTTCAT
mp53Δ30
  binding result: binds
Human p53 (hp53) [8]
  binding result: binds
Murine p53 (mp53) [9]
  binding result: binds

B11: non-specific control DNA (20 bp) (dsDNA)
DNA 1: TCGATCCTCTATGAATTAT
DNA 2: ATAATTCATAGAGGATCGA
mp53 R273H; label: 5' IR700 both strands
  binding result: no binding

B12: gadd45_1 (dsDNA)
DNA 1: ATGAAATGAACATGTCTGAGGCATGCTGAATTAA
DNA 2: TTAATTCAGCATGCCTCAGACATGTTCATTTCAT
Human p53 (hp53) [8]
  binding result: binds
Murine p53 (mp53) [9]
  binding result: binds

B13: MCK RE (dsDNA)
DNA 1: TGGCAAGCCTATGACATGGCCGGGGCCTGCCT
DNA 2: AGGCAGGCCCCGGCCATGTCATAGGCTTGCCA
Human p53 (hp53) [3]
  binding result: binds
